Measured values from patent publication US9283300B2, “Use of midkine protein and the protein-containing medical device” (GENERAL REGENERATIVES, LTD, priority 2009, dated 2016).

How the values were obtained:
rat primary chondrocytes = test: Serum-free culture of chondrocytes; assay type: cell-based; details: for promotion of cell expansion over the control cultures without rhMK: serum-free medium after 24 h in DMEM with 10% FBS
Method: 1. Preparation of primary chondrocyte. The 8-week-old male SD rats were sacrificed under sterile conditions. The articular cartilage, fibrocartilage and elastic cartilage tissue were isolated from the femur joints, meniscus and outer ear respectively using a scalpel. The isolated cartilage were cut into small pieces, washed twice with phosphate buffered saline (PBS), and digested with trypsin (0.25% (w/v) trypsin/0.02% (w/v) EDTA) at 37° C. for 30 min. The articular cartilage and elastic cartilage were further digested with 0.2% type II collagenase for additional 16 h, and the fibrocartilage were further digested with 0.15% type I collagenase for additional 16 h. After digestion, three chondrocytes were passed through 100 μm filter (Falcon, USA) into 15 ml centrifuge tubes, centrifuged at room temperature at 2000 rpm for 5 min. Cells were resuspended in DMEM containing 10% FBS (fetal bovine serum). Trypan blue staining of the freshly isolated cells was used to monitor the percentage of live cells under the microscope. When the number of live cells is more than 95%, it was used for subsequent experiments.
4. Serum-free culture. The primary chondrocytes were cultured with DMEM containing 10% FBS for 24 h and washed with serum-free culture medium once. The cells were further cultured with DMEM medium with ITS+1 (composed of insulin-transferrin-selenium, Sigma, USA). […] Cell medium was changed every two days. When cells grew to the confluence of 85% to 90%, they were collected by trypsin-digestion and subcultured as previously described.

[1] = test system: cartilage of normal New Zealand rabbit (articular, ear, tracheal, intervertebral disc); test: rhMK effect on cartilage thickness of normal rabbits (subcutaneous injection, histology); assay type: in vivo; details: rhMK 92.5 μg/kg s.c. daily for two weeks
Method: Method. 8-weeks-old male C57BL/6J mice were injected subcutaneously with recombinant human MK (rhMK) or control saline. The injection volume was 0.5 ml, given daily for a week. The mice were grouped (3 animals per group): Saline (NS) group, rhMK groups injected with various dosages at 10, 33, 100, 300, 900 μg/kg. Rats were injected with saline or rhMK (175 μg/kg) daily for a week. Rabbits were injected with saline or rhMK (92.5 μg/kg) daily for two week. Histological observation and evaluation. The knee joint tissues of all mice and rats were fixed in 10% (v/v) formalin for 1 day, the tissues of rabbits were fixed for 2 days. The fixed tissues were subjected to demineralization in liquid (7% AlCl3.6H2O, 5% methanoic acid, 8.5% HCl) 4 days for mouse and rats issues, and 10 days for rabbit tissues. The demineralized tissues were subjected to dehydration by gradient ethanol, and treated for transparency by xylene, and embedded in wax. Tissue sections were prepared by the paraffin slicing machine (Laica), and stained with hemotoxylin/eosin or Safranine O/fast green staining. Slides were observed under microscope and analyzed. The thickness of cartilage tissues were measured by the vernier caliper on microscope. Three tissue sections from each sample were measured and analyzed statisticaly. The distance between surface of cartilage to subchondral tide line was measured at ½ position of femoral condyle to denote the thickness of knee-joint cartilage. The thickness of cartilage at central part of ears was measured to denote the thickness of ear elastic cartilage. The distance between out surface of annulus to nucleus of the intervertebral disc was measured to denote the thickness of thoracic intervertebral disc (T2-3). To verify the results of rhMk in mice, we performed the same experiments in vivo using commonly used laboratory animals, rat and rabbit. Rats were injected subcutaneously with rhMK at 175 μg/kg/day for one week, and rabbits was injected subcutaneously 92.5 ug/kg/day for two weeks. […] The injection dose of rhMK: mice was injected subcutaneously 300 μg/kg daily for a week; rats were injected 175 μg/kg daily for a week; and New Zealand rabbits was injected 92.5 μg/kg daily for two weeks. Three animals per group were analyzed.

[2] = test system: cartilage of normal mouse (knee-joint articular, ear elastic, tracheal, intervertebral disc); test: rhMK effect on cartilage thickness of normal mice (subcutaneous injection, histology); assay type: in vivo, C57BL/6J mice; details: for Thickness of cartilage, Ear elastic cartilage / Thickness of cartilage, Femoral condyle / Thickness of cartilage, Intervertbral disc (T2-3): normal mouse, mean ± SD
Method: Method. 8-weeks-old male C57BL/6J mice were injected subcutaneously with recombinant human MK (rhMK) or control saline. The injection volume was 0.5 ml, given daily for a week. The mice were grouped (3 animals per group): Saline (NS) group, rhMK groups injected with various dosages at 10, 33, 100, 300, 900 μg/kg. Rats were injected with saline or rhMK (175 μg/kg) daily for a week. Rabbits were injected with saline or rhMK (92.5 μg/kg) daily for two week. Histological observation and evaluation. The knee joint tissues of all mice and rats were fixed in 10% (v/v) formalin for 1 day, the tissues of rabbits were fixed for 2 days. The fixed tissues were subjected to demineralization in liquid (7% AlCl3.6H2O, 5% methanoic acid, 8.5% HCl) 4 days for mouse and rats issues, and 10 days for rabbit tissues. The demineralized tissues were subjected to dehydration by gradient ethanol, and treated for transparency by xylene, and embedded in wax. Tissue sections were prepared by the paraffin slicing machine (Laica), and stained with hemotoxylin/eosin or Safranine O/fast green staining. Slides were observed under microscope and analyzed. The thickness of cartilage tissues were measured by the vernier caliper on microscope. Three tissue sections from each sample were measured and analyzed statisticaly. The distance between surface of cartilage to subchondral tide line was measured at ½ position of femoral condyle to denote the thickness of knee-joint cartilage. The thickness of cartilage at central part of ears was measured to denote the thickness of ear elastic cartilage. The distance between out surface of annulus to nucleus of the intervertebral disc was measured to denote the thickness of thoracic intervertebral disc (T2-3). The injection dose of rhMK: mice was injected subcutaneously 300 μg/kg daily for a week; rats were injected 175 μg/kg daily for a week; and New Zealand rabbits was injected 92.5 μg/kg daily for two weeks. Three animals per group were analyzed.

[3] = Mouse, rhMK 300 μg/kg s.c. daily for a week
[4] = rhMK 10 μg/kg s.c. daily for one week
[5] = rhMK 33 μg/kg s.c. daily for one week
[6] = rhMK 100 μg/kg s.c. daily for one week
[7] = rhMK 300 μg/kg s.c. daily for one week
[8] = rhMK 900 μg/kg s.c. daily for one week

B1: rhMK: recombinant human midkine mature protein (SEQ ID NO.1) expressed in E. coli and purified by ion-exchange chromatography (protein, listed as Homo sapiens)
chain: MKKKDKVKKGGPGSECAEWAWGPCTPSSKDCGVGFREGTCGAQTQRIRCRVPCNWKKEFGADCKYKFENWGACDGGTGTKVRQGTLKKARYNAQCQETIRVTKPCTPKTKAKAKAKKGKGKD
Rat primary chondrocytes; passage 1
  promotion of cell expansion over the control cultures without rhMK: 34%
Rat primary chondrocytes; passage 2
  promotion of cell expansion over the control cultures without rhMK: 51%
Rat primary chondrocytes; passage 3
  promotion of cell expansion over the control cultures without rhMK: 18%
Rat primary chondrocytes; three types of chondrocytes cultured directly in serum-free medium, rhMK 3 μg/ml
  cell attachment and proliferation in serum-free medium: did not make the cell attachment and proliferation
[1]
  Cartilage thickness, Ear: 605.4 ± 5.4 µm
  Cartilage thickness, Femoral condyle: 612 ± 6.4 µm
  Cartilage thickness, Intervertbral disc (T2-3): 1520 ± 54 µm
  Cartilage thickness, Trachea: 495 ± 6.5 µm
[2]; [3]
  Cartilage thickness, Ear: 58.5 ± 19.6 µm
  Cartilage thickness, Femoral condyle: 195 ± 9.9 µm
  Cartilage thickness, Intervertbral disc (T2-3): 201 ± 17.2 µm
  Cartilage thickness, Trachea: 114 ± 18 µm
[2]; mice, s.c. daily for a week
  effective dose that promoted the growth of all three categories of cartilages: 300 µg/kg/day
  minimum effective dose, articular cartilage and ear elastic cartilage: 10 µg/kg/day
[2]; [4]
  Thickness of cartilage, Ear elastic cartilage: 47.6 ± 4.7 μm
  Thickness of cartilage, Femoral condyle: 152 ± 2.7 μm
  Thickness of cartilage, Intervertbral disc (T2-3): 193.8 ± 25.2 μm
[2]; [5]
  Thickness of cartilage, Ear elastic cartilage: 46.2 ± 5.6 μm
  Thickness of cartilage, Femoral condyle: 156.4 ± 8.1 μm
  Thickness of cartilage, Intervertbral disc (T2-3): 206.2 ± 29.4 μm
[2]; [6]
  Thickness of cartilage, Ear elastic cartilage: 48.9 ± 5.5 μm
  Thickness of cartilage, Femoral condyle: 172.4 ± 11.1 μm
  Thickness of cartilage, Intervertbral disc (T2-3): 193.8 ± 3.1 μm
[2]; [7]
  Thickness of cartilage, Ear elastic cartilage: 58.5 ± 19.6 μm
  Thickness of cartilage, Femoral condyle: 195.3 ± 9.9 μm
  Thickness of cartilage, Intervertbral disc (T2-3): 200.7 ± 17.2 μm
[2]; [8]
  Thickness of cartilage, Ear elastic cartilage: 51.6 ± 5.6 μm
  Thickness of cartilage, Femoral condyle: 200.0 ± 7.0 μm
  Thickness of cartilage, Intervertbral disc (T2-3): 217.1 ± 6.0 μm
